In patent US11833164B2, “Methods of treating Fabry disease in patients having a mutation in the GLA gene” (Amicus Therapeutics, Inc., priority 2019, dated 2023):

System: mutant form of α-Gal A expressed in HEK-293 cells
Experiment: HEK assay (GLP HEK / Migalastat Amenability Assay): α-Gal A activity in lysates of transiently transfected HEK-293 cells incubated with or without 10 μM migalastat
Type: cell-based, human
Settings: for Absolute increase (% WT): 10 μM migalastat versus baseline; for Relative increase: 10 μM migalastat α-Gal A activity relative to baseline; for 10 μM migalastat α-Gal A activity (% WT): 5 days; for 10 μM migalastat α-Gal A activity (% WT) / Baseline α-Gal A activity (% WT): percentage of baseline wild-type α-Gal A activity; for 10 μM migalastat α-Gal A activity (% WT) / Baseline α-Gal A activity (% WT) / Baseline α-Gal A activity / 10 μM migalastat α-Gal A activity: mean ± SEM; for Baseline α-Gal A activity (% WT): absence of migalastat; for Baseline α-Gal A activity / 10 μM migalastat α-Gal A activity: lysates of HEK-293 cells transfected with the mutant form; for Baseline α-Gal A activity: incubated 5 days in the absence of migalastat; for 10 μM migalastat α-Gal A activity: incubated 5 days with 10 μM migalastat
Method: Such mutations or variants are also referred to herein as “HEK assay amenable” mutations or variants.
The α-Gal A activity is expressed as the nmoles of free 4-MU released per milligram of protein per hour (nmol/mg/hr).
In Table 7, values for the mean±standard error of the mean (SEM) were calculated. nmol/mg/hr indicates “nmoles of free 4-MU released per mg of protein per hour”. WT indicates “wild-type”. NC indicates “not calculable”. N/A indicates “not applicable”.

B1: H115N (protein)
chain: MQLRNPELHLGCALALRFLALVSWDIPGARALDNGLARTPTMGWLHWERFMCNLDCQEEPDSCISEKLFMEMAELMVSEGWKDAGYEYLCIDDCWMAPQRDSEGRLQADPQRFPNGIRQLANYVHSKGLKLGIYADVGNKTCAGFPGSFGYYDIDAQTFADWGVDLLKFDGCYCDSLENLADGYKHMSLALNRTGRSIVYSCEWPLYMWPFQKPNYTEIRQYCNHWRNFADIDDSWKSIKSILDWTSFNQERIVDVAGPGGWNDPDMLVIGNFGLSWNQQVTQMALWAIMAAPLFMSNDLRHISPQAKALLQDKDVIAINQDPLGKQGYQLRQGDNFEVWERPLSGLAWAVAMINRQEIGGPRSYTIAVASLGKGVACNPACFITQLLPVKRKLGFYEWTSRLRSHINPTGTVLLQLENTMQMSLKDLL
- Absolute increase (% WT): 30.1 % WT
- Relative increase: 1.7
- 10 μM migalastat α-Gal A activity (% WT): 75 ± 2.5 % WT
- Baseline α-Gal A activity (% WT): 44.9 ± 2.5 % WT
- Baseline α-Gal A activity: 13745 ± 890 nmol/mg/h
- 10 μM migalastat α-Gal A activity: 23018 ± 1098 nmol/mg/h

B2: G116R (protein)
chain: MQLRNPELHLGCALALRFLALVSWDIPGARALDNGLARTPTMGWLHWERFMCNLDCQEEPDSCISEKLFMEMAELMVSEGWKDAGYEYLCIDDCWMAPQRDSEGRLQADPQRFPHRIRQLANYVHSKGLKLGIYADVGNKTCAGFPGSFGYYDIDAQTFADWGVDLLKFDGCYCDSLENLADGYKHMSLALNRTGRSIVYSCEWPLYMWPFQKPNYTEIRQYCNHWRNFADIDDSWKSIKSILDWTSFNQERIVDVAGPGGWNDPDMLVIGNFGLSWNQQVTQMALWAIMAAPLFMSNDLRHISPQAKALLQDKDVIAINQDPLGKQGYQLRQGDNFEVWERPLSGLAWAVAMINRQEIGGPRSYTIAVASLGKGVACNPACFITQLLPVKRKLGFYEWTSRLRSHINPTGTVLLQLENTMQMSLKDLL
- Absolute increase (% WT): 9.9 % WT
- Relative increase: 2.7
- 10 μM migalastat α-Gal A activity (% WT): 15.4 ± 1.5 % WT
- Baseline α-Gal A activity (% WT): 5.4 ± 0.3 % WT
- Baseline α-Gal A activity: 1922 ± 143 nmol/mg/h
- 10 μM migalastat α-Gal A activity: 5251 ± 464 nmol/mg/h

B3: I117M (protein)
chain: MQLRNPELHLGCALALRFLALVSWDIPGARALDNGLARTPTMGWLHWERFMCNLDCQEEPDSCISEKLFMEMAELMVSEGWKDAGYEYLCIDDCWMAPQRDSEGRLQADPQRFPHGMRQLANYVHSKGLKLGIYADVGNKTCAGFPGSFGYYDIDAQTFADWGVDLLKFDGCYCDSLENLADGYKHMSLALNRTGRSIVYSCEWPLYMWPFQKPNYTEIRQYCNHWRNFADIDDSWKSIKSILDWTSFNQERIVDVAGPGGWNDPDMLVIGNFGLSWNQQVTQMALWAIMAAPLFMSNDLRHISPQAKALLQDKDVIAINQDPLGKQGYQLRQGDNFEVWERPLSGLAWAVAMINRQEIGGPRSYTIAVASLGKGVACNPACFITQLLPVKRKLGFYEWTSRLRSHINPTGTVLLQLENTMQMSLKDLL
- Absolute increase (% WT): 29.4 % WT
- Relative increase: 1.6
- 10 μM migalastat α-Gal A activity (% WT): 83.5 ± 3.6 % WT
- Baseline α-Gal A activity (% WT): 54.2 ± 3.9 % WT
- Baseline α-Gal A activity: 20226 ± 1373 nmol/mg/h
- 10 μM migalastat α-Gal A activity: 31280 ± 1153 nmol/mg/h

B4: I117T (protein)
chain: MQLRNPELHLGCALALRFLALVSWDIPGARALDNGLARTPTMGWLHWERFMCNLDCQEEPDSCISEKLFMEMAELMVSEGWKDAGYEYLCIDDCWMAPQRDSEGRLQADPQRFPHGTRQLANYVHSKGLKLGIYADVGNKTCAGFPGSFGYYDIDAQTFADWGVDLLKFDGCYCDSLENLADGYKHMSLALNRTGRSIVYSCEWPLYMWPFQKPNYTEIRQYCNHWRNFADIDDSWKSIKSILDWTSFNQERIVDVAGPGGWNDPDMLVIGNFGLSWNQQVTQMALWAIMAAPLFMSNDLRHISPQAKALLQDKDVIAINQDPLGKQGYQLRQGDNFEVWERPLSGLAWAVAMINRQEIGGPRSYTIAVASLGKGVACNPACFITQLLPVKRKLGFYEWTSRLRSHINPTGTVLLQLENTMQMSLKDLL
- Absolute increase (% WT): 4.7 % WT
- Relative increase: 2.1
- 10 μM migalastat α-Gal A activity (% WT): 9 ± 0.9 % WT
- Baseline α-Gal A activity (% WT): 4.3 ± 0.2 % WT
- Baseline α-Gal A activity: 1607 ± 54 nmol/mg/h
- 10 μM migalastat α-Gal A activity: 3303 ± 308 nmol/mg/h

B5: A121V (protein)
chain: MQLRNPELHLGCALALRFLALVSWDIPGARALDNGLARTPTMGWLHWERFMCNLDCQEEPDSCISEKLFMEMAELMVSEGWKDAGYEYLCIDDCWMAPQRDSEGRLQADPQRFPHGIRQLVNYVHSKGLKLGIYADVGNKTCAGFPGSFGYYDIDAQTFADWGVDLLKFDGCYCDSLENLADGYKHMSLALNRTGRSIVYSCEWPLYMWPFQKPNYTEIRQYCNHWRNFADIDDSWKSIKSILDWTSFNQERIVDVAGPGGWNDPDMLVIGNFGLSWNQQVTQMALWAIMAAPLFMSNDLRHISPQAKALLQDKDVIAINQDPLGKQGYQLRQGDNFEVWERPLSGLAWAVAMINRQEIGGPRSYTIAVASLGKGVACNPACFITQLLPVKRKLGFYEWTSRLRSHINPTGTVLLQLENTMQMSLKDLL
- Absolute increase (% WT): 56.7 % WT
- Relative increase: 3.7
- 10 μM migalastat α-Gal A activity (% WT): 78.2 ± 4.2 % WT
- Baseline α-Gal A activity (% WT): 21.5 ± 1.2 % WT
- Baseline α-Gal A activity: 7301 ± 253 nmol/mg/h
- 10 μM migalastat α-Gal A activity: 26639 ± 1124 nmol/mg/h

B6: Y123D (protein)
chain: MQLRNPELHLGCALALRFLALVSWDIPGARALDNGLARTPTMGWLHWERFMCNLDCQEEPDSCISEKLFMEMAELMVSEGWKDAGYEYLCIDDCWMAPQRDSEGRLQADPQRFPHGIRQLANDVHSKGLKLGIYADVGNKTCAGFPGSFGYYDIDAQTFADWGVDLLKFDGCYCDSLENLADGYKHMSLALNRTGRSIVYSCEWPLYMWPFQKPNYTEIRQYCNHWRNFADIDDSWKSIKSILDWTSFNQERIVDVAGPGGWNDPDMLVIGNFGLSWNQQVTQMALWAIMAAPLFMSNDLRHISPQAKALLQDKDVIAINQDPLGKQGYQLRQGDNFEVWERPLSGLAWAVAMINRQEIGGPRSYTIAVASLGKGVACNPACFITQLLPVKRKLGFYEWTSRLRSHINPTGTVLLQLENTMQMSLKDLL
- Absolute increase (% WT): 10.2 % WT
- Relative increase: 1.2
- 10 μM migalastat α-Gal A activity (% WT): 53.6 ± 2.7 % WT
- Baseline α-Gal A activity (% WT): 43.4 ± 1.6 % WT
- Baseline α-Gal A activity: 15093 ± 815 nmol/mg/h
- 10 μM migalastat α-Gal A activity: 18723 ± 1237 nmol/mg/h

B7: Y123F (protein)
chain: MQLRNPELHLGCALALRFLALVSWDIPGARALDNGLARTPTMGWLHWERFMCNLDCQEEPDSCISEKLFMEMAELMVSEGWKDAGYEYLCIDDCWMAPQRDSEGRLQADPQRFPHGIRQLANFVHSKGLKLGIYADVGNKTCAGFPGSFGYYDIDAQTFADWGVDLLKFDGCYCDSLENLADGYKHMSLALNRTGRSIVYSCEWPLYMWPFQKPNYTEIRQYCNHWRNFADIDDSWKSIKSILDWTSFNQERIVDVAGPGGWNDPDMLVIGNFGLSWNQQVTQMALWAIMAAPLFMSNDLRHISPQAKALLQDKDVIAINQDPLGKQGYQLRQGDNFEVWERPLSGLAWAVAMINRQEIGGPRSYTIAVASLGKGVACNPACFITQLLPVKRKLGFYEWTSRLRSHINPTGTVLLQLENTMQMSLKDLL
- Absolute increase (% WT): 33.8 % WT
- Relative increase: 1.5
- 10 μM migalastat α-Gal A activity (% WT): 97.4 ± 3.4 % WT
- Baseline α-Gal A activity (% WT): 63.6 ± 3.3 % WT
- Baseline α-Gal A activity: 22066 ± 1408 nmol/mg/h
- 10 μM migalastat α-Gal A activity: 33544 ± 1384 nmol/mg/h
